In patent US20190085095A1 (SHIRE HUMAN GENETIC THERAPIES, published 2019):
Several values for one entry are separate records, joined by “and”; a condition that tells them apart may be missing. Identical values can stand only once.

Tests used:
[1] = target: T1, human complement component 5 (C5) (human, UniProt P01031 19-1676); assay: cell-based or functional assay
cynomolgus monkey C5 [2] = target: T2, cynomolgus monkey C5 (cynomolgus monkey, UniProt A0A2K5U1T1 19-1676); assay: mean affinity for cC5, Biacore
T2 construct: also called cC5; cynomolgus C5

[3] = target: T1, human complement component 5 (C5); assay: Biacore, pH 7.4, against Control 1
Method: (§1) The kinetics of binding of purified human C5 (hC5) or hC5 in human serum to immobilized mAbs (via capture with anti-Fc antibodies) were measured by Biacore® assays over a pH range from 7.4 to 5.5. Binding was tested at pH 7.4, 7.0, 6.5, 6.0, and 5.5.

[4] = target: T1, human complement component 5 (C5); assay: Biacore; KD at pH 5.5 against KD at pH 7.4
Method: as §1

[5] = target: T1, human complement component 5 (C5); assay: Biacore, mAb captured via anti-Fc, hC5, pH 5.5
Method: as §1

[6] = target: T1, human complement component 5 (C5); assay: Biacore, mAb captured via anti-Fc, hC5, pH 7.4
Method: as §1

[7] = target: T3, human neonatal Fc receptor (FcRn) (human, UniProt P55899 24-297; P61769 21-119); assay: Biacore, immobilized recombinant hFcRn, pH 5.5; pH 5.5
T3 construct: also called hFcRn; recombinant FcRn
T3 sequence (P55899 24-297 limits assumed, chain 1 of 2): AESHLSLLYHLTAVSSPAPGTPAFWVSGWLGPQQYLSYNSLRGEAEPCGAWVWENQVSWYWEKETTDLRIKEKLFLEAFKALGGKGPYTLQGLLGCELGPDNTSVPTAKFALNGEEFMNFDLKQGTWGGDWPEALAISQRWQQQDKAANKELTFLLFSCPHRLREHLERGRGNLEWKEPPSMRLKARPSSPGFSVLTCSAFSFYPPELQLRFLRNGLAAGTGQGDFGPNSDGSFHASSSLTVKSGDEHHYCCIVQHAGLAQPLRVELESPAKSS
T3 sequence (P61769 21-119 limits assumed, chain 2 of 2): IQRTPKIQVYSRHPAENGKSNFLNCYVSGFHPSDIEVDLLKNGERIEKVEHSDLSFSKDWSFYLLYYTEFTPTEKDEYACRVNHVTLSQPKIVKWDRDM
Method: (§2) Kinetics of binding to immobilized recombinant FcRn was determined for mAbs at pH 7.4 and pH 5.5 in Biacore® assays.

[8] = target: T3, human neonatal Fc receptor (FcRn); assay: Biacore, immobilized recombinant hFcRn, pH 6.0; pH 6.0
Method: as §2

FcγRIIIA = FcγRIIIA (UniProt P08637 17-208, limits assumed); assay: binding affinity to Fcγ receptor, method not stated; range 1000-31.25 nM
FcγRIIIA, sequence (P08637 17-208 limits assumed): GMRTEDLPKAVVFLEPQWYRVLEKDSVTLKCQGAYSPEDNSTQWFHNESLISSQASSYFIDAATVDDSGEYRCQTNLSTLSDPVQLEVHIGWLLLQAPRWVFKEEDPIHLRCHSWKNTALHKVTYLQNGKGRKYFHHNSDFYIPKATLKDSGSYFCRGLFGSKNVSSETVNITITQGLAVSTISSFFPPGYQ

cynomolgus monkey C5 [9] = target: T2, cynomolgus monkey C5; assay: KD for cC5 of Antibody B against that of Control 1
[10] = target: T3, human neonatal Fc receptor (FcRn); assay: Biacore, immobilized recombinant hFcRn, pH 5.5
Method: as §2

[11] = target: T3, human neonatal Fc receptor (FcRn); assay: Biacore, immobilized recombinant hFcRn, pH 6.0
Method: as §2

cynomolgus monkey C5 [12] = target: T2, cynomolgus monkey C5; assay: Biacore, pH 7.4, cynomolgus against human (FIG. 8G)
Method: (§3) Biacore® binding assays were performed with antibody captured on the chip and sera from 16 different mammalian species as the analyte that is flowed over the chip.
To validate the binding as specific to C5, pull-down experiments were performed on sera from cynomolgus monkeys. Size exclusion chromatography was used to purify the resulting cynomolgus C5, which was also used to reconfirm binding on biacore.

[13] = target: T1, human complement component 5 (C5); assay: Biacore, antibody captured, purified C5, pH 7.4
[14] = target: T1, human complement component 5 (C5); assay: Biacore, mAb captured via anti-Fc, purified hC5, pH 5.5
Method: (§4) Binding of hC5 to immobilized mAbs (via capture with anti-Fc antibodies) were measured by Biacore® assays at 7.4 and pH 5.5.

[15] = target: T1, human complement component 5 (C5); assay: Biacore, mAb captured via anti-Fc, purified hC5, pH 7.4
Method: as §4

[16] = target: T1, human complement component 5 (C5); assay: Biacore, antibody captured, human serum as analyte, pH 7.4
Method: as §3

cynomolgus monkey C5 [17] = target: T2, cynomolgus monkey C5; assay: Biacore, antibody captured, cynomolgus serum as analyte, pH 7.4
Method: as §3

[18] = target: T3, human neonatal Fc receptor (FcRn); assay: Biacore, immobilized recombinant hFcRn, pH 7.4; range 2000-15.6 nM
Method: as §2

FcγRI = FcγRI (UniProt P12314 16-288, limits assumed); assay: binding affinity to Fcγ receptor, method not stated; range 62.5-0.48 nM
FcγRI, sequence (P12314 16-288 limits assumed): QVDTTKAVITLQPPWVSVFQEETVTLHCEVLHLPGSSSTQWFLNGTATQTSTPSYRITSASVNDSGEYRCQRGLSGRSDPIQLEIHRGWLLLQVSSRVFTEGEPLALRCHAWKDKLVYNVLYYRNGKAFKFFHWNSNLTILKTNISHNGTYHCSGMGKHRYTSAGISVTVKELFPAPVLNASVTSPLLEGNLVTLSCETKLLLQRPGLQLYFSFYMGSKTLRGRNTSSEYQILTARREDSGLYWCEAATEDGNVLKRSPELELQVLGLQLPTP

baboon C5 = target: T4, baboon C5 (baboon); assay: Biacore, antibody captured, baboon serum as analyte, pH 7.4; estimated, C5 titer assumed
T4 construct: also called C5 in baboon serum
Method: as §3

rhesus monkey C5 = target: T5, rhesus monkey C5 (rhesus monkey, UniProt F7GHV1 19-1676); assay: Biacore, antibody captured, rhesus serum as analyte, pH 7.4; estimated, C5 titer assumed
T5 construct: also called C5 in rhesus serum
T5 sequence (F7GHV1 entry or part of it): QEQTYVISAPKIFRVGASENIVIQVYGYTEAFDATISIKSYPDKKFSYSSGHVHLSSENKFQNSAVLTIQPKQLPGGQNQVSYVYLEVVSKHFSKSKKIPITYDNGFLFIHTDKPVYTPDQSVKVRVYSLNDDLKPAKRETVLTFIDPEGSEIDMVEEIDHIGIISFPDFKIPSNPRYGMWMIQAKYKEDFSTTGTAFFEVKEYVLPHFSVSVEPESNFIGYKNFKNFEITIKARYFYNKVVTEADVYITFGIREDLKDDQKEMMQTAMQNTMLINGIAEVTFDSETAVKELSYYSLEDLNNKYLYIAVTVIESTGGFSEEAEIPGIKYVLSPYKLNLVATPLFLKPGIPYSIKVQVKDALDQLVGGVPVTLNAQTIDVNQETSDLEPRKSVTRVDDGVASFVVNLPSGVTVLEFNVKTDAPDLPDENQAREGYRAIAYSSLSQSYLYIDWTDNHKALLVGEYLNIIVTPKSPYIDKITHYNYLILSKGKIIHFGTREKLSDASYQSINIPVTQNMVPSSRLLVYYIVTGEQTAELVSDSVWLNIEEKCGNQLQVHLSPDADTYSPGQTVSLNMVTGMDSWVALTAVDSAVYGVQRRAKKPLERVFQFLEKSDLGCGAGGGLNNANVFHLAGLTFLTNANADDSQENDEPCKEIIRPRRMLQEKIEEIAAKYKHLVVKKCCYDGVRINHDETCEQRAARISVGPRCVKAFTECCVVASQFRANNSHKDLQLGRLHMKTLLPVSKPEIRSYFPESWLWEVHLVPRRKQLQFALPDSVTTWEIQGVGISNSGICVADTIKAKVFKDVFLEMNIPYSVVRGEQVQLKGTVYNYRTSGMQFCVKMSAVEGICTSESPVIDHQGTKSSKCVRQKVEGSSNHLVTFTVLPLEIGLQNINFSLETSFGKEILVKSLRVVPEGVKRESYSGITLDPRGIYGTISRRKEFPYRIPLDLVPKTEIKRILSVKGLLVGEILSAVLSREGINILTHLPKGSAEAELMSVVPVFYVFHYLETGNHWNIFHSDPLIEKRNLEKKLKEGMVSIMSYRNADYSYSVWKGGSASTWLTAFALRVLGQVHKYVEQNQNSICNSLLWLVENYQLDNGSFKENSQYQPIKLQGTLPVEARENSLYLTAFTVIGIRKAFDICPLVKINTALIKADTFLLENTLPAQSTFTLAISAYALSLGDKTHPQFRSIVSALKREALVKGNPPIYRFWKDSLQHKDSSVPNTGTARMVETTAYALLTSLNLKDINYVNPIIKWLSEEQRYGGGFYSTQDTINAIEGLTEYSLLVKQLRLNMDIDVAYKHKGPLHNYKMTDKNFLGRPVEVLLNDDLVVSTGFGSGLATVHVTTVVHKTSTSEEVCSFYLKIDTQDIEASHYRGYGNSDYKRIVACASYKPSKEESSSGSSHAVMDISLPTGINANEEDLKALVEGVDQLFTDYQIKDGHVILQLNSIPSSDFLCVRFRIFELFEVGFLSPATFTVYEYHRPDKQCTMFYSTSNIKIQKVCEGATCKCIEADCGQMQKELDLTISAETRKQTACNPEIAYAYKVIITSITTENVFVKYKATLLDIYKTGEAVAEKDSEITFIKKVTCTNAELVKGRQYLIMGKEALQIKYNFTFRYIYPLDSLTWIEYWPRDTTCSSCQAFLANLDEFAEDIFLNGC
Method: as §3

CD-1 mouse C5 = target: T6, CD-1 mouse C5 (CD-1 mouse, UniProt P06684 19-1680); assay: Biacore, antibody captured, CD-1 mouse serum as analyte, pH 7.4; estimated, C5 titer assumed
T6 construct: also called C5 in CD-1 mouse serum; CD1 mice
T6 sequence (P06684 19-1680 limits assumed): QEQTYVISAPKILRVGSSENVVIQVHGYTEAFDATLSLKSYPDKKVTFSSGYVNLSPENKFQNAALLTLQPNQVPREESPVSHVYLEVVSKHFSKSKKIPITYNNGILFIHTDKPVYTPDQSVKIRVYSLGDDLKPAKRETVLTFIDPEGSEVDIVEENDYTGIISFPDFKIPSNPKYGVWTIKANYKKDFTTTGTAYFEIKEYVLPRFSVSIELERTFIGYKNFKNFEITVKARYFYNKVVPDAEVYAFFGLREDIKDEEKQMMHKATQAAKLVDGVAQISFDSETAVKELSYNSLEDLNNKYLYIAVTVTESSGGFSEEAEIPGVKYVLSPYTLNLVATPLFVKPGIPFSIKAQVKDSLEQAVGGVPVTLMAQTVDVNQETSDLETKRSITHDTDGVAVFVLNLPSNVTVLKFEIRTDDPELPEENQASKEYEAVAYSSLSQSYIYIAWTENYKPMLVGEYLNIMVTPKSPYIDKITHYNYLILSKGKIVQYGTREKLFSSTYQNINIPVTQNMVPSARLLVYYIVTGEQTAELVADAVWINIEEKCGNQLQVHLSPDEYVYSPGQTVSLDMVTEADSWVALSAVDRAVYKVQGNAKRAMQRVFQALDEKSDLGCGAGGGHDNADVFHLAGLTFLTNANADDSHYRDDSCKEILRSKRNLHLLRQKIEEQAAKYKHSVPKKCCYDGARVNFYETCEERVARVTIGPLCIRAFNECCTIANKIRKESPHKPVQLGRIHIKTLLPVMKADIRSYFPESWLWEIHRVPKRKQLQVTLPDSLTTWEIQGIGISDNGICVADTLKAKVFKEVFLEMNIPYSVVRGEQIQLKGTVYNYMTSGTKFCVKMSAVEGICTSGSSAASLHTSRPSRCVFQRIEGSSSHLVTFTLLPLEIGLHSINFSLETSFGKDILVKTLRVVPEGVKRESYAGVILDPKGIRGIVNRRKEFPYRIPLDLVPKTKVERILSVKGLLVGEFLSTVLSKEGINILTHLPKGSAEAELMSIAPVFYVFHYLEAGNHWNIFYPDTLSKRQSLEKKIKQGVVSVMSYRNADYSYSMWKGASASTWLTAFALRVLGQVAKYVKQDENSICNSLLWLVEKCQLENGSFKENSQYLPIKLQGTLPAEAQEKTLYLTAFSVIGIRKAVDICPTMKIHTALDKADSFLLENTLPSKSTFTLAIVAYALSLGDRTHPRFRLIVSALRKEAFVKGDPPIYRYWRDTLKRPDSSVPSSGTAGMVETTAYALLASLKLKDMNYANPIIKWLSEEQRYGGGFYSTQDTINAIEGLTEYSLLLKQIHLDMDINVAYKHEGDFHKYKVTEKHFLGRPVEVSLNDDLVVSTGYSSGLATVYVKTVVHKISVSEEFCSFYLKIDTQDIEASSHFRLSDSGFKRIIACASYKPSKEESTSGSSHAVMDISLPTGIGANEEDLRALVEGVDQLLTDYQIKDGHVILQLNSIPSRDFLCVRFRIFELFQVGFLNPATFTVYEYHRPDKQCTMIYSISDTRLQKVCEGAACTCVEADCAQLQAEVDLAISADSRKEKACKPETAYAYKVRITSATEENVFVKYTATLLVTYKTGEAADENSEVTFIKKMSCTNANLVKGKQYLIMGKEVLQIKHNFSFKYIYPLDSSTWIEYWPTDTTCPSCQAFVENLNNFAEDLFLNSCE
Method: as §3

African Green monkey C5 = target: T7, African Green monkey C5 (African Green monkey); assay: Biacore, antibody captured, African Green monkey serum as analyte, pH 7.4; estimated, C5 titer assumed
T7 construct: also called C5 in African Green monkey serum
Method: as §3

[19] = target: T3, human neonatal Fc receptor (FcRn); assay: Biacore, immobilized recombinant hFcRn, pH 7.4; range 50-0.39 nM; pH 7.4; concentration range 50-0.39 nM
Method: as §2

[20] = target: T1, human complement component 5 (C5); assay: Kd at pH 5.5 against Kd at pH 7.4
[21] = target: T1, human complement component 5 (C5); assay: C5 binding affinity at pH 5.5; method not named in Example 2
[22] = target: T1, human complement component 5 (C5); assay: C5 binding affinity at pH 7.4; method not named in Example 2
[23] = target: T1, human complement component 5 (C5); assay: C5 binding affinity at pH 7.4; method not named in Example 2; pH 7.4; IgG2 Fc

Binder	IC50 for inhibition of antibody-sensitized lysis of chicken RBC by human serum [1] [µg/mL]	fold reduction of the C5 binding affinity at pH 7.4 as compared to Control 1 [3] [fold]	KD fold-change [4] [fold]	Kd [5] [nM]	Kd [6] [nM]	Kd [7] [nM]	Kd [8] [nM]	Kd (FcγRIIIA) [nM]	Kd (baboon C5) [nM]	Kd (African Green monkey C5) [nM]	Fold change in Kd (pH 5.5 vs. pH 7.4) [20] [fold]	Kd [21] [nM]	other results
Antibody A (antibody, human IgG1, kappa, L234A L235A, IgG1 with L234A, L235A) heavy: not shown light: DIQMTQSPSSLSASVGDRVTITCGAHENIYHALNWYQQKPGKAPKLLIYGATNLAHGVPSRFSGSGSGTDFTLTISSLQPEDFATYYCQNVLNTPLTFGQGTKVEIKRTVAAPSVFIFPPSDEQLKSGTASVVCLLNNFYPREAKVQWKVDNALQSGNSQESVTEQDSKDSTYSLSSTLTLSKADYEKHKVYACEVTHQGLSSPVTKSFNRGEC	3	< 3	332	113	0.34	5.9	11.3	7420					Kd (cynomolgus monkey C5 [2]): 1.65 nM
Antibody B (antibody, human IgG1, kappa, L234A L235A, IgG1 with L234A, L235A, H433K, N434F) heavy: not shown light: DIQMTQSPSSLSASVGDRVTITCGAHENIYHALNWYQQKPGKAPKLLIYGATNLAHGVPSRFSGSGSGTDFTLTISSLQPEDFATYYCQNVLNTPLTFGQGTKVEIKRTVAAPSVFIFPPSDEQLKSGTASVVCLLNNFYPREAKVQWKVDNALQSGNSQESVTEQDSKDSTYSLSSTLTLSKADYEKHKVYACEVTHQGLSSPVTKSFNRGEC	3	< 3	414	145	0.35			9620	2.6	3.2			fold improvement in affinity against Control 1 (cynomolgus monkey C5 [9]): 8 fold; Kd [10]: 0.13 nM; Kd [11]: 0.24 nM; fold lower affinity than for human C5 (cynomolgus monkey C5 [12]): 5.7 fold; Kd [13]: 0.34 nM; fold lower affinity than BNJ441 at pH 5.5 [14]: 10 fold; fold greater affinity than BNJ441 at pH 7.4 [15]: 3 fold; Kd [16]: 0.33 nM; Kd (cynomolgus monkey C5 [17]): 1.9 nM; Kd [18]: 191 nM; Kd (FcγRI): 94 nM and 75 nM and 62 nM; Kd (rhesus monkey C5): 3.19 nM; Kd (CD-1 mouse C5): 5.3 nM; Kd [19]: 108 nM
Antibody C (antibody, human IgG1, kappa, L234A L235A, V domains shown, IgG1 with L234A, L235A, H433K, N434F) VH: QVQLVQSGAEVKKPGASVKVSCKASGYTFSHYWIQWVRQAPGQGLEWMGEILPGSGSTEYTENFKDRVTMTRDTSISTAYMELSSLRSEDTAVYYCARYHFGSSPNWYFDVWGQGTLVTVSS VL: DIQMTQSPSSLSASVGDRVTITCGAHENIYGALNWYQQKPGKAPKLLIYGATNLAHGVPSRFSGSGSGTDFTLTISSLQPEDFATYYCQNVLNTPLTFGQGTKVEIKR		< 3	142	37	0.26								
Antibody E (antibody, human IgG1, kappa, L234A L235A, IgG1 Fc constant region; also called F100H heavy / N93H light on IgG1 backbone) heavy: not shown light: DIQMTQSPSSLSASVGDRVTITCGASENIYGALNWYQQKPGKAPKLLIYGATNLADGVPSRFSGSGSGTDFTLTISSLQPEDFATYYCQNVLHTPLTFGQGTKVEIKRTVAAPSVFIFPPSDEQLKSGTASVVCLLNNFYPREAKVQWKVDNALQSGNSQESVTEQDSKDSTYSLSSTLTLSKADYEKHKVYACEVTHQGLSSPVTKSFNRGEC											48.5	34.9	Kd [22]: 0.72 nM
Antibody D (antibody, human IgG2, kappa, IgG2 Fc constant region; also called F100H heavy / N93H light on IgG2 backbone) heavy: QVQLVQSGAEVKKPGASVKVSCKASGYIFSNYWIQWVRQAPGQGLEWMGEILPGSGSTEYTENFKDRVTMTRDTSTSTVYMELSSLRSEDTAVYYCARYHFGSSPNWYFDVWGQGTLVTVSSASTKGPSVFPLAPCSRSTSESTAALGCLVKDYFPEPVTVSWNSGALTSGVHTFPAVLQSSGLYSLSSVVTVPSSNFGTQTYTCNVDHKPSNTKVDKTVERKCCVECPPCPAPPVAGPSVFLFPPKPKDTLMISRTPEVTCVVVDVSHEDPEVQFNWYVDGVEVHNAKTKPREEQFNSTFRVVSVLTVVHQDWLNGKEYKCKVSNKGLPAPIEKTISKTKGQPREPQVYTLPPSREEMTKNQVSLTCLVKGFYPSDIAVEWESNGQPENNYKTTPPMLDSDGSFFLYSKLTVDKSRWQQGNVFSCSVMHEALHNHYTQKSLSLSPGK light: DIQMTQSPSSLSASVGDRVTITCGASENIYGALNWYQQKPGKAPKLLIYGATNLADGVPSRFSGSGSGTDFTLTISSLQPEDFATYYCQNVLHTPLTFGQGTKVEIKRTVAAPSVFIFPPSDEQLKSGTASVVCLLNNFYPREAKVQWKVDNALQSGNSQESVTEQDSKDSTYSLSSTLTLSKADYEKHKVYACEVTHQGLSSPVTKSFNRGEC											13.4	13.9	Kd [23]: 1.04 nM
Control 1 (antibody, human IgG2, kappa, IgG2 and IgG4 (IgG 2-4); produced in CHO cells; also called control antibody) heavy: QVQLVQSGAEVKKPGASVKVSCKASGYIFSNYWIQWVRQAPGQGLEWMGEILPGSGSTEYTENFKDRVTMTRDTSTSTVYMELSSLRSEDTAVYYCARYFFGSSPNWYFDVWGQGTLVTVSSASTKGPSVFPLAPCSRSTSESTAALGCLVKDYFPEPVTVSWNSGALTSGVHTFPAVLQSSGLYSLSSVVTVPSSNFGTQTYTCNVDHKPSNTKVDKTVERKCCVECPPCPAPPVAGPSVFLFPPKPKDTLMISRTPEVTCVVVDVSQEDPEVQFNWYVDGVEVHNAKTKPREEQFNSTYRVVSVLTVLHQDWLNGKEYKCKVSNKGLPSSIEKTISKAKGQPREPQVYTLPPSQEEMTKNQVSLTCLVKGFYPSDIAVEWESNGQPENNYKTTPPVLDSDGSFFLYSRLTVDKSRWQEGNVFSCSVMHEALHNHYTQKSLSLSLGK light: DIQMTQSPSSLSASVGDRVTITCGASENIYGALNWYQQKPGKAPKLLIYGATNLADGVPSRFSGSGSGTDFTLTISSLQPEDFATYYCQNVLNTPLTFGQGTKVEIKRTVAAPSVFIFPPSDEQLKSGTASVVCLLNNFYPREAKVQWKVDNALQSGNSQESVTEQDSKDSTYSLSSTLTLSKADYEKHKVYACEVTHQGLSSPVTKSFNRGEC						125	125		16.2	27.5			
